Among the data in US20100261660A1 are mean fluorescence intensity (MFI) values, retold here.

The target in this assay is hB7-1-FLAG (human) (UniProt P33681). Kind of assay: flow cytometry, seven transient transfections of 293 cells, mean±SEM; used by the filing as a measure of expression.
Chain of hB7-1-FLAG (human) (P33681 other isoform, or with tags, fused parts or gaps): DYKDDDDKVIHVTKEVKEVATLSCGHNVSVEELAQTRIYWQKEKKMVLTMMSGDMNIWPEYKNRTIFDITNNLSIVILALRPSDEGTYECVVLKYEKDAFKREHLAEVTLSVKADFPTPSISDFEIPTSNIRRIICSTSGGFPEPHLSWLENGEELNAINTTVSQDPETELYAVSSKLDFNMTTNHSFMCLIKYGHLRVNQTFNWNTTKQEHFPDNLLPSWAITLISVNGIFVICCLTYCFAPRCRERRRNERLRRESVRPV

In turn, FLAG-specific mAb M2 (antibody) returned a mean fluorescence intensity (MFI) of 55.
